T1: hIK1 intermediate conductance, calcium-activated potassium channel (human), O15554
T1 chain: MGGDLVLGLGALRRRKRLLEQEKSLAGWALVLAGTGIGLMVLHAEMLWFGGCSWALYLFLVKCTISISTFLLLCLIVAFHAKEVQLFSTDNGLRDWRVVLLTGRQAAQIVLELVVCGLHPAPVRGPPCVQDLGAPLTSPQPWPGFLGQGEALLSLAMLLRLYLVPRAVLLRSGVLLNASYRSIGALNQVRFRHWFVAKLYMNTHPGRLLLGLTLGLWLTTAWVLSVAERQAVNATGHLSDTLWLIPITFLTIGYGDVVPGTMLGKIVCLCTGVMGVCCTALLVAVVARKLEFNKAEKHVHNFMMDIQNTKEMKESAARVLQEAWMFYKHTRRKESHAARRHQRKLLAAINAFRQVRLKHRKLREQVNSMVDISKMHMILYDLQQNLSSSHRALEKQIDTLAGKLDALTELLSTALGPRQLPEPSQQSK


Assays:
[1] = molecular target: rSK2 small conductance, calcium-activated potassium channel (rat), P70604
[2] = molecular target: T1, hIK1 intermediate conductance, …; assay: block of macroscopic hIK1 current, patch clamp on macropatches from Xenopus oocytes

rSK2 small conductance, calcium-activated potassium channel (rat), P70604, sequence (P70604 whole entry): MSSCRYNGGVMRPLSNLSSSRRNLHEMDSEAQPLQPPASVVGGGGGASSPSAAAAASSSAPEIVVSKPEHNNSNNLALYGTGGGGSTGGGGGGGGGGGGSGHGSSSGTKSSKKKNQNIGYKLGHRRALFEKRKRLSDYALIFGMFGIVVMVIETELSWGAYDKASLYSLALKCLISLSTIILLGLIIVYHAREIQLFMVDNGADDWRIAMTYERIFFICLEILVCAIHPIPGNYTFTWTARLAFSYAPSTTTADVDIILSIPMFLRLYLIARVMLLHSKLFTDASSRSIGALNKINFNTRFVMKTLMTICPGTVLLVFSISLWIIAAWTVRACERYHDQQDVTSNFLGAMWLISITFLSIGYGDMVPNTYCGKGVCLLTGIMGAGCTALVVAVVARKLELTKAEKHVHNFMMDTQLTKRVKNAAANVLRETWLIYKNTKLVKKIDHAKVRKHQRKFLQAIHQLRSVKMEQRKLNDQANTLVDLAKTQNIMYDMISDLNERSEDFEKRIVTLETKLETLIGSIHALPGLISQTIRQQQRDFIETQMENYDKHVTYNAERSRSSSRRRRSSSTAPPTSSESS

Binder | Kd [1] [nM] | Ki [2] [nM]
CNCKAPETALCARRCQQH (modifications not checked) [apamin, P01500 28-45] | 0.063 | 
QFTNVSCTTSKECWSVCQRLHNTSRGKCMNKKCRCYS (modifications not checked) [charybdotoxin, P13487 23-59] |  | 2.5
